Source: CN114984207A (ZHEJIANG TERUISI PHARMACEUTICAL INC, dated 2022)

Legend:
[1] = target: T1, PD-1蛋白 (冻干, fortebio assay) (UniProt Q15116 25-167, limits assumed); assay: BLI (Octet K2), antibody captured on Protein A sensor, PD-1 protein as analyte from 50 nM, 2-fold dilutions
T1 construct: also called 抗原PD-1蛋白; 冻干PD-1蛋白

[2] = target: T2, 人PD-1蛋白(Acro PD1-HB2F2) (human, UniProt Q15116 25-167, limits assumed); assay: ELISA, human PD-1 protein coated at 20 ng/mL, antibody titrated from 1000 ng/mL
T2 construct: Bought protein coated on the ELISA plate; also called 抗原PD-1蛋白; human PD-1 protein
T2 sequence (Q15116 25-167 limits assumed): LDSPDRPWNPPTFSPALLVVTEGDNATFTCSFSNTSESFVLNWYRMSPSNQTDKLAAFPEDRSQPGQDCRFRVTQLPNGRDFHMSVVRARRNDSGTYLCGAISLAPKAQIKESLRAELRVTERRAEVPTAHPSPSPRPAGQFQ

T1 sequence (Q15116 25-167 limits assumed): as above

B1: 抗PD-1纳米抗体 N7 (Fc fusion)
chain: QVQLQESGGGLVQPGGSLRLSCAASGSTYLRFSMGWFRQVPGKEREGVAAIGGDGRTSYADSVKGRFTISKDNSKNTLYLDMNSLRAEDTAVYYCAAAVLLDGSFSLLAPLVPYKYDYWGQGTLVTVSSERKSSVECPPCPAPEFLGGPSVFLFPPKPKDTLMISRTPEVTCVVVDVSQEDPEVQFNWYVDGVEVHNAKTKPREEQFNSTYRVVSVLTVLHQDWLNGKEYKCKVSNKGLPSSIEKTISKAKGQPREPQVYTLPPSQEEMTKNQVSLTCLVKGFYPSDIAVEWESNGQPENNYKTTPPVLDSDGSFFLYSRLTVDKSRWQEGNVFSCSVMHEALHNHYTQKSLSLSLGK
With B1 as the binder, how does the kon [1] read?
Its kon is 274000 M⁻¹ s⁻¹.

What about the EC50 [2] of the same binder?
Its EC50 is 9.98 ng/mL.
